Biological target: Cg1978-C-His (Gip with a C-terminal His tag) (Corynebacterium glutamicum ATCC 13032 (CGP3 prophage))
Experiment: SPR

**Q.** For “GyrA-N-Strep (C. glutamicum DNA gyrase subunit A with an N-terminal Strep-tag) (from UniProt Q8NUC6 1-856) (natural protein)”, which Kd is on record?
**A.** 5.4 nM

**Q.** And the koff?
**A.** 0.00092 s⁻¹

**Q.** And the kon?
**A.** 97000 M⁻¹ s⁻¹
